Source: US7157568B1, “Human estrogen receptor-β” (American Home Products Corporation, priority 1997, dated 2007)

What was measured:
Assay type in all cases: cell-based
[1] = tested on: NFkB binding site reporter (3x-NFkB TK.LUC) in HepG2 cells; test: NFkB-luciferase reporter assay in IL-1β-stimulated transfected HepG2 cells; details: IL-1β and estradiol
Experimental: FIG. 7A is a graphic illustration of the effect of estradiol stimulation of full-length hERβ (hERβL) and truncated hERβ (hERβT) on NFkB activation in HepG2 cells. Cells were transfected with either hERβL or hERβT and co-transfected with a luciferase reporter plasmid containing three copies of an NFkB binding site (3×-NFkB TK.LUC) and a control β-galactosidase plasmid. Cells were stimulated with interleukin-1β and incubated in the absence or presence of estradiol, after which luciferase activity was measured and normalized to β-galactosidase activity. FIG. 7B is a graphic illustration of luciferase activity in cells transfected with either hERβL or hERβT and co-transfected with a luciferase reporter plasmid lacking an NFkB binding site (TK.LUC).
In a separate experiment, HepG2 cells were transfected with hERβT or […] as above, but the reporter gene consisted of three copies of an NFkB binding site upstream of the TK basal promoter. Transfected cells were incubated with or without interleukin-1β (IL-1β) to activate NFkB and/or with estradiol prior to luciferase determination.

[2] = tested on: ERE (ERE.TK.LUC reporter) in HepG2 cells; test: ERE-luciferase reporter transactivation in transfected HepG2 cells; details: in the presence of estradiol
Experimental: FIG. 6A is a graphic illustration of the transcriptional activation capacity of full-length hERβ (hERβL) and truncated hERβ (hERβT) expressed in HepG2 cells. Cells were transfected with either hERβL or hERβT and co-transfected with a luciferase reporter plasmid containing an estrogen response element (ERE) (ERE.TK.LUC) and a control β-galactosidase plasmid. Cells were incubated in the absence or presence of estradiol, after which luciferase activity was measured and normalized to β-galactosidase activity. FIG. 6B is a graphic illustration of luciferase activity in HepG2 cells transfected with either hERβL or hERβT and co-transfected with a luciferase reporter plasmid lacking an ERE (TK.LUC)
HepG2 cells (ATCC) were transfected in parallel with either pcDNA3-hERβL or pcDNA3-hERβT using the calcium phosphate co-precipitation method. Cells were co-transfected with a reporter plasmid containing a luciferase gene preceded by either an ERE upstream of the thymidine kinase (TK) basal promoter, or the TK basal promoter alone. […] Luciferase activity was measured by a chemiluminescent method using the Promega luciferase assay system, and β-galactosidase activity was measured by Galactolight (Tropix, Inc., Bedford Mass.); luciferase activity was then normalized to β-galactosidase activity.

[3] = tested on: ERE-reporter gene in HAECT-1 cells; test: ERE-luciferase reporter transactivation in HAECT-1 human endothelial cells; details: 100 nM 17-β estradiol overnight
Experimental: FIG. 8 is a graphic illustration of the transcriptional activation capacity of full-length hERβ (hERβL) and truncated hERβ (hERβT) expressed in HAECT-1 human endothelial cells. Cells were transfected with either hERβL or hERβT and co-transfected with a luciferase reporter plasmid containing an ERE (ERE.TK.LUC) or one lacking an ERE (TK.LUC). Cells were incubated in the absence or presence of estradiol, after which luciferase activity was measured. ERE TK.LUC values were normalized to TK.LUC values and are presented as mean±S.E. (n=4).
HAECT-1 cells (a clonal immortalized human aortic endothelia cell line derived by infection with Ad5 ori-SV40 ts A209) were transfected with pcDNA3hERβT or pcDNA3-hERβL and ERE-luciferase plasmids by electroporation. After 4 hours, the cells were treated overnight with or without 100 nM 17-β estradiol prior to luciferase activity measurements. […] In independent experiments, cells transfected under identical conditions were monitored for their levels of estrogen receptors using a ligand binding assay.

[4] = tested on: ERE-LacZ reporter (YRpE2) in S. cerevisiae strain BJ2168; test: ERE-LacZ reporter assay in yeast; details: 17-β estradiol or Genistein for 3 hours

Molecule | attenuation of IL-1β-mediated NFkB transcriptional activation [1] | activity relative to hERβT (ERE activity) [2] | activity in activating the ERE-reporter gene relative to hERβT [3] | maximal level of estrogen-stimulated LacZ expression relative to hERβT-transformed cells [4] [fold]
hERβL: full-length human estrogen receptor-β of 530 amino acid residues, SEQ ID NO:2 (protein, Human) MDIKNSPSSLNSPSSYNCSQSILPLEHGSIYIPSSYVDSHHEYPAMTFYSPAVMNYSIPSNVTNLEGGPGRQTTSPNVLWPTPGHLSPLVVHRQLSHLYAEPQKSPWCEARSLEHTLPVNRETLKRKVSGNRCASPVTGPGSKRDAHFCAVCSDYASGYHYGVWSCEGCKAFFKRSIQGHNDYICPATNQCTIDKNRRKSCQACRLRKCYEVGMVKCGSRRERCGYRLVRRQRSADEQLHCAGKAKRSGGHAPRVRELLLDALSPEQLVLTLLEAEPPHVLISRPSAPFTEASMMMSLTKLADKELVHMISWAKKIPGFVELSLFDQVRLLESCWMEVLMMGLMWRSIDHPGKLIFAPDLVLDRDEGKCVEGILEIFDMLLATTSRFRELKLQHKEYLCVKAMILLNSSMYPLVTATQDADSSRKLAHLLNAVTDALVWVIAKSGISSQQQSMRLANLLMLLSHVRHASNKGMEHLLNMKCKNVVPVYDLLLEMLNAHVLRGCKSSITGSECSPAEDSKSKEGSQNPQSQ | capable of attenuating | about 3 fold | 2–3 times | 2
hERβT: truncated human estrogen receptor-β lacking the first 45 amino acids (Clone 3) (protein, UniProt Q92731 46-530, looked up, fragment) MTFYSPAVMNYSIPSNVTNLEGGPGRQTTSPNVLWPTPGHLSPLVVHRQLSHLYAEPQKSPWCEARSLEHTLPVNRETLKRKVSGNRCASPVTGPGSKRDAHFCAVCSDYASGYHYGVWSCEGCKAFFKRSIQGHNDYICPATNQCTIDKNRRKSCQACRLRKCYEVGMVKCGSRRERCGYRLVRRQRSADEQLHCAGKAKRSGGHAPRVRELLLDALSPEQLVLTLLEAEPPHVLISRPSAPFTEASMMMSLTKLADKELVHMISWAKKIPGFVELSLFDQVRLLESCWMEVLMMGLMWRSIDHPGKLIFAPDLVLDRDEGKCVEGILEIFDMLLATTSRFRELKLQHKEYLCVKAMILLNSSMYPLVTATQDADSSRKLAHLLNAVTDALVWVIAKSGISSQQQSMRLANLLMLLSHVRHASNKGMEHLLNMKCKNVVPVYDLLLEMLNAHVLRGCKSSITGSECSPAEDSKSKEGSQNPQSQ | no inhibitory activity |  |  | 
